Laboratory results: paper PMC6951436 (Cell reports, 2019)
Several values for one entry are separate records, joined by “and”; a condition that tells them apart may be missing. Equal values may be shown once.

B1: pyruvate kinase liver isoform phosphorylated at S12 (PKL pS12) (enzyme)
chain: not shown
modifications: phosphoserine at 12 (71.2% phosphorylated)
B2: pyruvate kinase liver isoform phosphorylated at S113 (PKL pS113) (enzyme)
chain: not shown
modifications: phosphoserine at 113 (82.8% phosphorylated)

Target: the molecule itself
Experiment: native gel or EMSA + SEC

Protein	stoichiometry N
B1	4 and 2
B2	4 and 2
